The values that follow are results of earlier work, collected in paper PMC6538672.

This data set addresses RMI1:RMI2 (Homo sapiens) (UniProt Q9H9A7).
Chain of UniProt Q9H9A7 (Q9H9A7 whole entry, chain 1 of 2): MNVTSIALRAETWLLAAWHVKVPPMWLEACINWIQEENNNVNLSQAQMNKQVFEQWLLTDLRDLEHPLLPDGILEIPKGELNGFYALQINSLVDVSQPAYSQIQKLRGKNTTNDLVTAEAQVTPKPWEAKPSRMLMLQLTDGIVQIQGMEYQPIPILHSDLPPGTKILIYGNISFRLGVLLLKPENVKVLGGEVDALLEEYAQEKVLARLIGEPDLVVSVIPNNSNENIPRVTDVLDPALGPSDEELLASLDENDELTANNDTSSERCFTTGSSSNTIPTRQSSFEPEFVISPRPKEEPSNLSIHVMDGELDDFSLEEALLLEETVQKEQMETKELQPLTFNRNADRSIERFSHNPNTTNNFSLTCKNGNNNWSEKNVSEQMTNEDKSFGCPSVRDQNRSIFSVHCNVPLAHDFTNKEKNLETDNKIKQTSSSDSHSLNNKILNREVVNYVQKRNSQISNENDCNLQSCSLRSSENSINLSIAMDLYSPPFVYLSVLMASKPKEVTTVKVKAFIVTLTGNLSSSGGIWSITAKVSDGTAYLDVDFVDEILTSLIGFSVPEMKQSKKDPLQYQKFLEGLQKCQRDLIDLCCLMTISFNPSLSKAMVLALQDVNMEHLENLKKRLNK
Chain of UniProt Q9H9A7 (Q96E14 2-147, chain 2 of 2, further chain): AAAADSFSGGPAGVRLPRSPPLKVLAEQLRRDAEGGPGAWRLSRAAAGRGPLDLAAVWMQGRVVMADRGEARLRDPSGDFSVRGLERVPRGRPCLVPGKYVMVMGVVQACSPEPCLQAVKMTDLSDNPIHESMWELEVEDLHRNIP

Consider FANCM MM2 (from UniProt Q8IYD8), for which the Kd was 5 nM.

One may read the Kd as the free concentration of one partner at which half of the binding sites on the other are occupied at equilibrium, for simple one-to-one binding.
